Assay: yeast display, Sf9 membrane polyspecificity reagent, FACS + sequencing; frameworks hold sequencing errors
Summary of the method: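 Sorting gates, low and high (top ~1%), were placed on anti-HA fluorescence to track expression and on streptavidin fluorescence to track reagent binding. A clone's polyreactivity label is taken from the gate it came out of. The reagent was 10% biotinylated, detergent-solubilized Sf9 membrane, applied for 1 hour at 4 °C to galactose-induced yeast display cells.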

Q: Which “polyreactivity (PSR sort gate)” value does the source give for “QVQLVDSGGGLVQAGGSLRLSCAASGRTFAWNAMGWYRQAPGKERELVAVITSGGSTNYADSVKGRFTISRDNAKNTVYLQMNSLKPEDTAVYYCATGDGPSLFDYWGQGTQVTVSS” here?
A: low polyreactivity

Q: Which “polyreactivity (PSR sort gate)” value does the source give for “QVQLVESGGGLVQAGGSLRLSCAASGLTFGGNAMGWYRQAPGKERELVAAISWSDDTTDYADSVKGRFTISRDNGKYTVYLQMNSLKPEDTAVYYCAARLPFEHVDYWGQGTQVTVSS” here?
A: low polyreactivity

Q: Which “polyreactivity (PSR sort gate)” value does the source give for “QVQLVESGGGLVQAGGSLRLSCAASGRILPWYAMGWYRQAPWKERELVAGISSNGGSTYYADSVKGRFTSSRDNPKNTVYLQMNSLKTEDTAVYYCAARVWYWRHYPSDYWGQGTQVTVSS” here?
A: high polyreactivity

Q: With “QVQRVESGGGLVQAGGSLRLSSASSGFTFRSYAMGWYRQEPGKERELVAVIASSGGSTYYADSVKGRFTFSRDNAKNTVYLQMNSLKPEDTAVYYCNRRPATRAYLYDYWGQGTQVTVSW” as the sequence, how does the “polyreactivity (PSR sort gate)” value read?
A: high polyreactivity

Q: For “QVQLVESGGGLVQAGGSLRLSCAASGITFASYVMGWYRQAPGKERELVAAISSSGGSTYYADSVKGRFTISRDNAKNTVYLQMNSLKPEDTAVYYCKARLYYSWRSTYDYWGQGTQVTVSS”, which “polyreactivity (PSR sort gate)” value is on record?
A: high polyreactivity

Q: For “QVQLVESGGGLVQAGGSLRLSCAASGIIFASNAMGWYRQAPGKERELVAAISRSGGRTYYADSVKGRFTISRDNAKNTVYLQMNSLKPEDTAVYYCNAVQFGATAYDYWGQGTQVTVSS”, which “polyreactivity (PSR sort gate)” value is on record?
A: high polyreactivity

Q: With “QVQLVESGGGLVQAGGSLRLSCAASGFTFGYYAMGWYRQAPGKERELVAAITNSGGSTYYADSVKGRFTISRDNAKNTVYLQMNSLKPEDTAVYYCAAEISILPFVTPDTIYGYWGQGTQVTVSS” as the sequence, how does the “polyreactivity (PSR sort gate)” value read?
A: low polyreactivity

Q: With “QVQLVESGGGLVQAGGSLRLSCAASGRTFKYYAMGWYRQAPGKERELVAAISRRGGRTYYADSVKGRFTISRDNAKNTVYLQMNSLKPEDTAVYYCAAVFETGAGGFYYTLQYDSWGQGTQVTVSS” as the sequence, how does the “polyreactivity (PSR sort gate)” value read?
A: high polyreactivity

Q: For “QVQLVESGGGLVQAGGSLRLSCAASGRIFRWYAMGWYRQAPGKERELVATISSTGGSTYYADSVKGRFTISRDNAKNTVYLQMNSLKPEDTAVYYCNALSFITITVYSEGDYWGQGTQVTVSS”, which “polyreactivity (PSR sort gate)” value is on record?
A: low polyreactivity

Q: For “QVQLVESGGGLVQAGGSLRLSCAASGIIFSSYVMGWYRQAPGKERELVAAISSRGVSTYYADSVKGRFTISRDNAKNTVYLQMNSLKPEDTAVYYCAGVGPSYVRYYYWGQGTQVTVSS”, which “polyreactivity (PSR sort gate)” value is on record?
A: high polyreactivity

Q: For “QVHLVESGGGLVQAGGSLRLSCAASGRISYFYAMGWYRQAPGKESELVATITTSAGRTYYADSVKGRFTISRDNAKNTVYLLMNSLKPEDTAVYYCAASRYTYPYNYWGQGTQVTVSS”, which “polyreactivity (PSR sort gate)” value is on record?
A: high polyreactivity

Q: With “QVQLVESGGGLVQAGGSLRLSCAASGYIFPSNTMGWSIQAPGKERELVATISRSGVSTYYADSVKGRFTISRDYAKNTVYLHMYSLKPDDTAVYYCAASTVYYYRSKWLSSFDYWGQGTQVTVSS” as the sequence, how does the “polyreactivity (PSR sort gate)” value read?
A: low polyreactivity

Q: With “QVQLVESGGGLVQAGGSLRLICAASGITTRSNAMGWYRQAPGKERDFVAAITSRGGSTYYAYSVKGRFTISRDNAKNTVYLQMNSLKPEDTAVYYCAKGKYPDKKSRHVTLYDYWGQGTQVTVSS” as the sequence, how does the “polyreactivity (PSR sort gate)” value read?
A: high polyreactivity

Q: For “QVQLVESGGGLVQEGGSLSLSCAASGFTFYYYAMGLYRQAPGKERELVASISWRGGSTYYADSVKGRFTISRDNAKNTVYLQMNSLKPEDTAVYYCAAQKRGSPGYRRDYWGQGTQVAVSS”, which “polyreactivity (PSR sort gate)” value is on record?
A: high polyreactivity

Q: For “QVQLVESGGGLVQAGGSLRLSCAASGLTLTYYAMGWYRQAPGKERELVAAISSSGGSTYYADSVKGRFTISRDNAKNTVYLQMNSLKPEDAAVYYCAATRVSWTGRDDYWGQGTQVTVSS”, which “polyreactivity (PSR sort gate)” value is on record?
A: high polyreactivity

Q: Which “polyreactivity (PSR sort gate)” value does the source give for “QVQLVESGGGLVQAGGSLRLSCAASGGTFQLNAMGWYRQAPGKERELVATITTGGSTYADSVKGRFTISRDNAKNTVYLQMNSLKPEDTAVYYCNKTCFLVKLDYWGQGTQVTVSS” here?
A: low polyreactivity

Q: With “QVQLVESGGGLVQAGGSLRLSCAASGSTFYPYAMGWYRQAPGKERELVAAISSGGSTYYADSVKGRFTISRDNAKNTVYLQMNSLKPQDTAVYYCAADFYYAYYWGQGTQVTVSS” as the sequence, how does the “polyreactivity (PSR sort gate)” value read?
A: low polyreactivity

Q: For “QVQLVESGGGLVQAGGSLRLSCAASGSTFADYAMGWYRQAPGKERELVAAISWSGGRTYYADSVKGRFTISRDNAKNTVYLQMNSLKPEDTAVYYCAAGFGDGPGNGYYTRYSWDDDYWGQGTQVTVSS”, which “polyreactivity (PSR sort gate)” value is on record?
A: low polyreactivity

Q: For “QVQLVESGGGLVQAGGSLRISCAASGLTFEVYAMGWYRQAPGIERELVATITYSGGITYYADSVKGRFTISRDNAKNTVYLQMNSLKPEDTAVYYRIGFGGDYDYWGQGTQVTVSS”, which “polyreactivity (PSR sort gate)” value is on record?
A: low polyreactivity

Q: For “QVQLVESGGGLVQAGGSLRLSCAASGITFTNYAMGWYRQAPGKERELVAAISSRGGRTYYADSVKGRFTISRDNAKNTVYLQMNSLKPEDTAVYYCAASFFQVYGDDYWGQGTQVTVSS”, which “polyreactivity (PSR sort gate)” value is on record?
A: high polyreactivity

Q: With “QVQLVESVGGLVQAGGSLRLSCAASGITFAWYALGWYRQAPGKERELVAAITWSGDSTYYADSVKGRFTISRDNAKNTVYLQMNSLKPEDTAVYYCAAAYFSSGYKYYYWGQGTQVTVSS” as the sequence, how does the “polyreactivity (PSR sort gate)” value read?
A: high polyreactivity

Q: Which “polyreactivity (PSR sort gate)” value does the source give for “QVQLVESGAGLVQAGGSLRLSCAASGSTFYINTMGLYRQAPGKEREFVAAITWSGGSTYYADSVKGRFTISRDNAKNSGYLQMNSLKPEDTAVYYSAADLYVGDMDYRGQGTQVTVSS” here?
A: low polyreactivity

Q: With “QVQLVESGGGLVQAGGSLRLSCAASGSIFGAYAMGWYRQAPGKEREFVAAISSRGGNTYYADSVKGRFTISRDNAKNTVYLQMNSLKPEDTAVYYAVFRYHWKYDYWGQGTQVTVSS” as the sequence, how does the “polyreactivity (PSR sort gate)” value read?
A: high polyreactivity

Q: For “QVQLVESGGGLVQAGGSLRLSCAASGRTFTYYSMGWYRQAPGKESELVARISIRGTNTYYADSLKGRFTISRDNAKNTVYLQMTSLKPEDTAVYYCAKYYYTSIVGYDSWGQGTQVTVSS”, which “polyreactivity (PSR sort gate)” value is on record?
A: low polyreactivity

Q: With “QVQLVESGGGLVQAGGSLRLSCAASGVYAMGWYRQAPGQERELVAAITSVGSTNYADSVKGRFTISRDNAKNTVYLQMNSLKPEDTAVYYCNTDRDTDELDYWGQGTQVTVSS” as the sequence, how does the “polyreactivity (PSR sort gate)” value read?
A: low polyreactivity

Q: Which “polyreactivity (PSR sort gate)” value does the source give for “QVQLVESGGGLVQAVGSHRLSSAASGFTFRWYTMGWYRQAPGKERELVASIRYGGGSTYYADSVKGRFTISRDNAKNTVYLQMNCLKPEDTAVYYCAAESAWTSPYDYWGQGTQVTVSS” here?
A: high polyreactivity

Q: With “QVQLVESGGGLVQAGGSLRISCAASGSIFGYYAMGWYRQAPGKERELVAAITRSGGSTYYADSVKGRFTISRDNAKNTVYLQMNSLKPEDTAVYYCAAYYGHLYYTFDYWGQGTQVTVSS” as the sequence, how does the “polyreactivity (PSR sort gate)” value read?
A: low polyreactivity

Q: For “QVQLVESGGCLVQAGRSLRLRCAASARTIGSNAMGCYRQAPGKARELVDAISSRGGSTYYADSVKGRITISRDNAKNTVYLQMNSLYPEDTAVYYCDSEYYPHTTYLSDNWGQGTQETVSS”, which “polyreactivity (PSR sort gate)” value is on record?
A: high polyreactivity

Q: With “QVQLVESGGGLVQAGGSLRLSCAPSGIIYRYYGMVWYRQAPGKERELVAVITNSDGSTYYADSVKGRFTISRDNAKNTVYLQQYSLKPEDTAVYYCAARGITSRQRYYWGQGTQVTVSS” as the sequence, how does the “polyreactivity (PSR sort gate)” value read?
A: low polyreactivity

Q: For “QVQLVESGGGLVQAGGSLRLSCAASGRMFHIYAMGWYRQAPGKERELVAGITTSGGSTYYADSVKGRFTISRDNAKNTVYLQMNSLKPEDTSVDYCARDGLWWCGLTKRWWEFYYWGQGTQVTVSS”, which “polyreactivity (PSR sort gate)” value is on record?
A: low polyreactivity

Q: With “QVQLVESGGGLVQAGGSLRLSCAASGFIFYHNAMGWYRQAPGKERELVAAISQSGGRTYYADSVKGRFTISRDNAKNTVYLQMNSLKPEDTAGYYCAKRTRVYHPTYDYWGQGTQVTVSS” as the sequence, how does the “polyreactivity (PSR sort gate)” value read?
A: high polyreactivity

Q: For “QVQLVESGGGLVQAGGSLRLSCAASGSTFPWNAMGWYRQAPGKERELVAAINYGNGSTYYADSVKGRFTISRDNAKNTVYLQMNSLKPEDTAVYYCNADYTGTRTDSVTPEYEYCGQGTQVTVSS”, which “polyreactivity (PSR sort gate)” value is on record?
A: low polyreactivity

Source: the nanobody polyreactivity screen of Harvey et al. (2022)
